Patent US7314753

Assays:
[1] = biological target: CEA (carcino-embryonic antigen) (UniProt P06731); assay: enzyme activity specificity test, CEA-coated plate; pH 5.0 eluate ultraconcentrate 1:10, dilution 1:256
[2] = biological target: CEA (carcino-embryonic antigen) (UniProt P06731); assay: enzyme activity specificity test, CEA-coated plate; pH 5.0 eluate ultraconcentrate 1:10, dilution 1:4
[3] = biological target: CEA (carcino-embryonic antigen) (UniProt P06731); assay: enzyme activity specificity test, CEA-coated plate; pH 5.0 eluate ultraconcentrate 1:10, dilution 1:2
[4] = biological target: CEA (carcino-embryonic antigen) (UniProt P06731); assay: enzyme activity specificity test, CEA-coated plate; pH 5.0 eluate 1:3, dilution 1:4
[5] = biological target: CEA (carcino-embryonic antigen) (UniProt P06731); assay: enzyme activity specificity test, CEA-coated plate; void volume of affinity column 1:1, dilution 1:64
[6] = biological target: CEA (carcino-embryonic antigen) (UniProt P06731); assay: enzyme activity specificity test, CEA-coated plate; pH 5.0 eluate 1:3, dilution 1:256
[7] = biological target: CEA (carcino-embryonic antigen) (UniProt P06731); assay: enzyme activity specificity test, CEA-coated plate; pH 5.0 eluate ultrafiltrate 1:1, dilution 1:2
[8] = biological target: CEA (carcino-embryonic antigen) (UniProt P06731); assay: enzyme activity specificity test, CEA-coated plate; pH 5.0 eluate ultrafiltrate 1:1, dilution 1:32
[9] = biological target: CEA (carcino-embryonic antigen) (UniProt P06731); assay: enzyme activity specificity test, CEA-coated plate; pH 5.0 eluate ultraconcentrate 1:10, dilution 1:64
[10] = biological target: CEA (carcino-embryonic antigen) (UniProt P06731); assay: enzyme activity specificity test, CEA-coated plate; disrupted cell suspension 1:3, dilution 1:32
[11] = biological target: CEA (carcino-embryonic antigen) (UniProt P06731); assay: enzyme activity specificity test, CEA-coated plate; disrupted cell suspension 1:3, dilution 1:256
[12] = biological target: CEA (carcino-embryonic antigen) (UniProt P06731); assay: enzyme activity specificity test, CEA-coated plate; void volume of affinity column 1:1, dilution 1:8
[13] = biological target: CEA (carcino-embryonic antigen) (UniProt P06731); assay: enzyme activity specificity test, CEA-coated plate; pH 5.0 eluate ultraconcentrate 1:10, dilution 1:128
[14] = biological target: CEA (carcino-embryonic antigen) (UniProt P06731); assay: enzyme activity specificity test, CEA-coated plate; disrupted cell suspension 1:3, dilution 1:8
[15] = biological target: CEA (carcino-embryonic antigen) (UniProt P06731); assay: enzyme activity specificity test, CEA-coated plate; void volume of affinity column 1:1, dilution 1:32
[16] = biological target: CEA (carcino-embryonic antigen) (UniProt P06731); assay: enzyme activity specificity test, CEA-coated plate; pH 5.0 eluate 1:3, dilution 1:128
[17] = biological target: CEA (carcino-embryonic antigen) (UniProt P06731); assay: enzyme activity specificity test, CEA-coated plate; disrupted cell suspension 1:3, dilution 1:4
[18] = biological target: CEA (carcino-embryonic antigen) (UniProt P06731); assay: enzyme activity specificity test, CEA-coated plate; pH 5.0 eluate 1:3, dilution 1:8
[19] = biological target: CEA (carcino-embryonic antigen) (UniProt P06731); assay: enzyme activity specificity test, CEA-coated plate; pH 5.0 eluate ultrafiltrate 1:1, dilution 1:64
[20] = biological target: CEA (carcino-embryonic antigen) (UniProt P06731); assay: enzyme activity specificity test, CEA-coated plate; void volume of affinity column 1:1, dilution 1:4
[21] = biological target: CEA (carcino-embryonic antigen) (UniProt P06731); assay: enzyme activity specificity test, CEA-coated plate; pH 5.0 eluate 1:3, dilution 1:64
[22] = biological target: CEA (carcino-embryonic antigen) (UniProt P06731); assay: enzyme activity specificity test, CEA-coated plate; pH 5.0 eluate ultraconcentrate 1:10, dilution 1:8
[23] = biological target: CEA (carcino-embryonic antigen) (UniProt P06731); assay: enzyme activity specificity test, CEA-coated plate; void volume of affinity column 1:1, dilution 1:256
[24] = biological target: CEA (carcino-embryonic antigen) (UniProt P06731); assay: enzyme activity specificity test, CEA-coated plate; disrupted cell suspension 1:3, dilution 1:128
[25] = biological target: CEA (carcino-embryonic antigen) (UniProt P06731); assay: enzyme activity specificity test, CEA-coated plate; pH 5.0 eluate ultrafiltrate 1:1, dilution 1:256
[26] = biological target: CEA (carcino-embryonic antigen) (UniProt P06731); assay: enzyme activity specificity test, CEA-coated plate; pH 5.0 eluate ultraconcentrate 1:10, dilution 1:32
[27] = biological target: CEA (carcino-embryonic antigen) (UniProt P06731); assay: enzyme activity specificity test, CEA-coated plate; void volume of affinity column 1:1, dilution 1:128
[28] = biological target: CEA (carcino-embryonic antigen) (UniProt P06731); assay: enzyme activity specificity test, CEA-coated plate; pH 5.0 eluate ultrafiltrate 1:1, dilution 1:128
[29] = biological target: CEA (carcino-embryonic antigen) (UniProt P06731); assay: enzyme activity specificity test, CEA-coated plate; pH 5.0 eluate ultrafiltrate 1:1, dilution 1:16
[30] = biological target: CEA (carcino-embryonic antigen) (UniProt P06731); assay: enzyme activity specificity test, CEA-coated plate; disrupted cell suspension 1:3, dilution 1:16
[31] = biological target: CEA (carcino-embryonic antigen) (UniProt P06731); assay: enzyme activity specificity test, CEA-coated plate; pH 5.0 eluate ultraconcentrate 1:10, dilution 1:16
[32] = biological target: CEA (carcino-embryonic antigen) (UniProt P06731); assay: enzyme activity specificity test, CEA-coated plate; pH 5.0 eluate 1:3, dilution 1:2
[33] = biological target: CEA (carcino-embryonic antigen) (UniProt P06731); assay: enzyme activity specificity test, CEA-coated plate; pH 5.0 eluate ultrafiltrate 1:1, dilution 1:4
[34] = biological target: CEA (carcino-embryonic antigen) (UniProt P06731); assay: enzyme activity specificity test, CEA-coated plate; disrupted cell suspension 1:3, dilution 1:2
[35] = biological target: CEA (carcino-embryonic antigen) (UniProt P06731); assay: enzyme activity specificity test, CEA-coated plate; disrupted cell suspension 1:3, dilution 1:64
[36] = biological target: CEA (carcino-embryonic antigen) (UniProt P06731); assay: enzyme activity specificity test, CEA-coated plate; void volume of affinity column 1:1, dilution 1:16
[37] = biological target: CEA (carcino-embryonic antigen) (UniProt P06731); assay: enzyme activity specificity test, CEA-coated plate; pH 5.0 eluate 1:3, dilution 1:16
[38] = biological target: CEA (carcino-embryonic antigen) (UniProt P06731); assay: enzyme activity specificity test, CEA-coated plate; void volume of affinity column 1:1, dilution 1:2
[39] = biological target: CEA (carcino-embryonic antigen) (UniProt P06731); assay: enzyme activity specificity test, CEA-coated plate; pH 5.0 eluate 1:3, dilution 1:32
[40] = biological target: CEA (carcino-embryonic antigen) (UniProt P06731); assay: enzyme activity specificity test, CEA-coated plate; pH 5.0 eluate ultrafiltrate 1:1, dilution 1:8

Chain of UniProt P06731 (P06731 35-685 limits assumed): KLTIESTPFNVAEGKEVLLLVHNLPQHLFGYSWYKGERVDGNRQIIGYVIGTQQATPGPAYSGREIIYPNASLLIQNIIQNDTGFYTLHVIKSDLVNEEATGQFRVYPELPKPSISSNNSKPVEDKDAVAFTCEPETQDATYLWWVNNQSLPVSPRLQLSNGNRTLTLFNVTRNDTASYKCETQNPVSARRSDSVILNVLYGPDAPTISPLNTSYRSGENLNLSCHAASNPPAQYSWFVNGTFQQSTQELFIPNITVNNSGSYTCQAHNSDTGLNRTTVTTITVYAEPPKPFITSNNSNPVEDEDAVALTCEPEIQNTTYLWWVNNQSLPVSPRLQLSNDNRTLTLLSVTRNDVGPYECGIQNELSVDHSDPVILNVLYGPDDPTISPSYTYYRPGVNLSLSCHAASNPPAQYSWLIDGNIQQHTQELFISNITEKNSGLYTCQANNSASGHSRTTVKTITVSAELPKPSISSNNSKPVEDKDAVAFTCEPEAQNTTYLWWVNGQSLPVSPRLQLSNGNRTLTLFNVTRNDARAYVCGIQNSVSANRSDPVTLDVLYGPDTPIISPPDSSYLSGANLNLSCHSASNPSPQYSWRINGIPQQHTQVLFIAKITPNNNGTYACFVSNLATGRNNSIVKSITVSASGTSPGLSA

B1: Fab BW 431/26-E. coli β-glucuronidase fusion protein (protein)
heavy: MEVQLQESGPGLVRPSQTLSLTCTVSGFTISSGYSWHWVRQPPGRGLEWIGYIQYSGITNYNPSLKSRVTMLVDTSKNQFSLRLSSVTAADTAVYYCAREDYDYHWYFDVWGQGSLVTVTVSSASTKGPSVFPLAPCSRSTSGGTAALGCLVKDYFPEPVTVSWNSGALTSGVHTFPAVLQSSGLYSLSSVVTVPSSSLGTQTYTCNVNHKPSNTKVDKRVELGSGSGSMVRPVETPTREIKKLDGLWAFSLDRENCGIDQRWWESALQESRAIAVPGSFNDQFADADIRNYAGNVWYQREVFIPKGWAGQRIVLRFDAVTHYGKVWVNNQEVMEHQGGYTPFEADVTPYVIAGKSVRITVCVNNELNWQTIPPGMVITDENGKKKQSYFHNFFNYAGIHRSVMLYTTPNTWVDDITVVTHVAQDCNHASVDWQVVANGDVSVELRDADQQVVATGQGTSGTLQVVNPHLWQPGEGYLYELCVTAKSQTECDIYPLRVGIRSVAVKGEQFLINHKPFYFTGFGRHEDADLRGKGFDNVLMVHDHALMDWIGANSYRTSHYPYAEEMLDWADEHGIVVIDETAAVGFNLSLGIGFEAGNKPKELYSEEAVNGETQQAHLQAIKELIARDKNHPSVVMWSIANEPDTRPQGAREYFAPLAEATRKLDPTRPITCVNVMFCDAHTDTISDLFDVLCLNRYYGWYVQSGDLETAEKVLEKELLAWQEKLHQPIIITEYGVDTLAGLHSMYTDMWSEEYQCAWLDMYHRVFDRVSAVVGEQVWNFADFATSQGILRVGGNKKGIFTRDRKPKSAAFLLQKRWTGMNFGEKPQQGGKQ
light: MDIQMTQSPSSLSASVGDRVTITCSTSSSVSYMHWYQQKPGKAPKLLIYSTSNLASGVPSRFSGSGSGTDFTFTISSLQPEDIATYYCHQWSSYPTFGQGTKVEIKRTVAAPSVFIFPPSDEQLKSGTASVVCLLNNFYPREAKVQWKVDNALQSGNSQESVTEQDSKDSTYSLSSTLTLSKADYEKHKVYACEVTHQGLSSPVTKSFNRGEC
relative fluorescence units (FU) [1]: 666 FU
relative fluorescence units (FU) [2]: 8110 FU
relative fluorescence units (FU) [3]: 7900 FU
relative fluorescence units (FU) [4]: 7570 FU
relative fluorescence units (FU) [5]: 214 FU
relative fluorescence units (FU) [6]: 114 FU
relative fluorescence units (FU) [7]: 74.7 FU
relative fluorescence units (FU) [8]: 38.8 FU
relative fluorescence units (FU) [9]: 3620 FU
relative fluorescence units (FU) [10]: 4560 FU
relative fluorescence units (FU) [11]: 422 FU
relative fluorescence units (FU) [12]: 3220 FU
relative fluorescence units (FU) [13]: 1650 FU
relative fluorescence units (FU) [14]: 7530 FU
relative fluorescence units (FU) [15]: 525 FU
relative fluorescence units (FU) [16]: 302 FU
relative fluorescence units (FU) [17]: 8150 FU
relative fluorescence units (FU) [18]: 6360 FU
relative fluorescence units (FU) [19]: 25.8 FU
relative fluorescence units (FU) [20]: 5230 FU
relative fluorescence units (FU) [21]: 816 FU
relative fluorescence units (FU) [22]: 8040 FU
relative fluorescence units (FU) [23]: 46.3 FU
relative fluorescence units (FU) [24]: 1020 FU
relative fluorescence units (FU) [25]: 19.4 FU
relative fluorescence units (FU) [26]: 5800 FU
relative fluorescence units (FU) [27]: 86.2 FU
relative fluorescence units (FU) [28]: 23.5 FU
relative fluorescence units (FU) [29]: 52.3 FU
relative fluorescence units (FU) [30]: 6630 FU
relative fluorescence units (FU) [31]: 7150 FU
relative fluorescence units (FU) [32]: 7780 FU
relative fluorescence units (FU) [33]: 173 FU
relative fluorescence units (FU) [34]: 8180 FU
relative fluorescence units (FU) [35]: 2510 FU
relative fluorescence units (FU) [36]: 1480 FU
relative fluorescence units (FU) [37]: 4240 FU
relative fluorescence units (FU) [38]: 6550 FU
relative fluorescence units (FU) [39]: 1980 FU
relative fluorescence units (FU) [40]: 90.2 FU
